# Biological target: nrl_human NRL (UniProt P54845)
# Sequence (P54845 whole entry): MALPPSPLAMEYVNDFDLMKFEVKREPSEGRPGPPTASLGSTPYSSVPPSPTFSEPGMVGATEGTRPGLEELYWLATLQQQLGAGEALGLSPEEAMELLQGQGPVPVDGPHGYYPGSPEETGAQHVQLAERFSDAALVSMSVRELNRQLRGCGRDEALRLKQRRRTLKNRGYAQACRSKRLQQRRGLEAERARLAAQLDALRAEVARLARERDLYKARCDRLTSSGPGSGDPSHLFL
# Sequence of Cone-rod homeobox protein (Bos taurus (Bovine)), Q9XSK0 R41W (Q9XSK0 whole entry R41W): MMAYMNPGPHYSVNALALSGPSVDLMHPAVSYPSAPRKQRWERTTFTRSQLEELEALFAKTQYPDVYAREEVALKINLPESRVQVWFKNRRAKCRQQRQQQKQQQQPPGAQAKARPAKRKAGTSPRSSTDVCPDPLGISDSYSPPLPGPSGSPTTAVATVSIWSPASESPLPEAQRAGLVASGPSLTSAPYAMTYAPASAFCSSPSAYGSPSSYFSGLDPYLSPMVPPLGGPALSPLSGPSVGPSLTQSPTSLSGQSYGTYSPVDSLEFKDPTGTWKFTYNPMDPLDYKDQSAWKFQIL
# Sequence of Cone-rod homeobox protein (Bos taurus (Bovine)), Q9XSK0 R90W (Q9XSK0 whole entry R90W): as the sequence (Q9XSK0 whole entry R41W) above, with W41R, R90W counted along it
row,Substance,effect of a mutation on the interaction
1,"Cone-rod homeobox protein (Bos taurus (Bovine)), Q9XSK0 R41W",decreasing interaction
2,"Cone-rod homeobox protein (Bos taurus (Bovine)), Q9XSK0 R90W",decreasing interaction

# Reference: IntAct's records for PubMed 10887186
